Here are results for 33 molecules from patent publication EP4729546A1 (Jiangsu BioJeTay Biotechnology Co., Ltd., dated 2026).

Changes are numbered by the printed parent chain.

T1: huFXII-his (human, UniProt P00748 20-615)
T1 sequence (looked up): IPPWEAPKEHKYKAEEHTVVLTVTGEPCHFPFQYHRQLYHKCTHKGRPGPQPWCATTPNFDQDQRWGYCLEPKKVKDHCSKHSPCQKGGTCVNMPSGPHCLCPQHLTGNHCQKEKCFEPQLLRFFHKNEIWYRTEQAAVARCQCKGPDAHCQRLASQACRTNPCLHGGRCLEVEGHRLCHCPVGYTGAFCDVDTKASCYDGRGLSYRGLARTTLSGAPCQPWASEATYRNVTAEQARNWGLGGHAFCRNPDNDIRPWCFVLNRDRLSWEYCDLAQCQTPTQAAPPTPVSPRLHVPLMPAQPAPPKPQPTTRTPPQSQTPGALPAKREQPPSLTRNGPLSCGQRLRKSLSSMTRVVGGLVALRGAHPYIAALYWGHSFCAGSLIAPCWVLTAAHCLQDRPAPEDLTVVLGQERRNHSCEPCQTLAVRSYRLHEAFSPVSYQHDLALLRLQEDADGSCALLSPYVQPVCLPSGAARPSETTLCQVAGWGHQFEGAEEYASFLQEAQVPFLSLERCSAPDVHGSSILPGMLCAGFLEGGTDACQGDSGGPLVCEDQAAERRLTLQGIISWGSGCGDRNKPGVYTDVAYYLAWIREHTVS

B1: FX-Y17-Y48 (antibody, V domains shown)
VH: EVQLLESGGGLVQPGGSLRLSCAGSGFSFGSQTMSWVRQAPGKGLEWVSSISVISGRAYYADSVKGRFTISRDNSKNTLYLQMNSLRAEDTAVYYCTRSHAFDVWGQGTMVTVSS
VL: EIVLTQSPATLSVSPGERATLSCRASQSVYSALAWYQQKPGQAPRLLIYGASTRATGIPARFSGSGSGTEFTLTISSLQSEDFAVYYCQQYHKWPLSFGGGTKVEIK
B2: FX-Y17-Y33 (antibody, V domains shown)
VH: B1 VH with A58K, R98K
VL: B1 VL
B3: FX-Y17-Y28 (antibody, V domains shown)
VH: B1 VH with A58T, R98K, S99Q
VL: B1 VL
B4: FX-Y17-Y47 (antibody, V domains shown)
VH: B1 VH with A58D
VL: B1 VL
B5: FX-Y17-Y50 (antibody, V domains shown)
VH: B1 VH with A58R, R98K
VL: B1 VL
B6: FX-Y17-Y41 (antibody, V domains shown)
VH: B1 VH with A58R, T97A, R98K
VL: B1 VL
B7: FX-Y17-Y6 (antibody, V domains shown)
VH: B1 VH with V53Y, A58T, R98K
VL: B1 VL
B8: FX-Y17-Y35 (antibody, V domains shown)
VH: B1 VH with A58D, T97A, R98K
VL: B1 VL
B9: FX-Y17-Y42 (antibody, V domains shown)
VH: B1 VH with F29L, A58M, R98K
VL: B1 VL
B10: FX-Y17-Y51 (antibody, V domains shown)
VH: B1 VH with A58N
VL: B1 VL
B11: FX-Y17-Y24 (antibody, V domains shown)
VH: B1 VH with V53Y, A58T, R98K, S99G
VL: B1 VL
B12: FX-Y17-Y39 (antibody, V domains shown)
VH: B1 VH with V53H, A58T, R98K, A101D
VL: B1 VL with Y91N, H92N
B13: FX-Y17-Y38 (antibody, V domains shown)
VH: B1 VH with G56R, A58T, T97A, R98K
VL: B1 VL
B14: FX-Y17-Y36 (antibody, V domains shown)
VH: B1 VH with G56K, A58T, R98K
VL: B1 VL
B15: FX-Y17-Y43 (antibody, V domains shown)
VH: B1 VH with I51S, A58T
VL: B1 VL
B16: FX-Y17-Y9 (antibody, V domains shown)
VH: B1 VH with A58K, T97A, R98K
VL: B1 VL
B17: FX-Y17-Y14 (antibody, V domains shown)
VH: B1 VH with V53H, A58T, R98K, A101R
VL: B1 VL with Y91N, H92N
B18: FX-Y17-Y40 (antibody, V domains shown)
VH: B1 VH with A58T, R98K, S99A
VL: B1 VL with Y30W, A32N
B19: FX-Y17-Y1 (antibody, V domains shown)
VH: B1 VH with G56R, A58T, R98K
VL: B1 VL
B20: FX-Y17-Y15 (antibody, V domains shown)
VH: B1 VH with A58P, R98K
VL: B1 VL
B21: FX-Y17-Y37 (antibody, V domains shown)
VH: B1 VH with A58S, R98K
VL: B1 VL with Y30W, A32N
B22: FX-Y17-Y21 (antibody, V domains shown)
VH: B1 VH with V53H, A58T, T97A, R98K
VL: B1 VL with Y91N, H92N
B23: FX-Y17-Y16 (antibody, V domains shown)
VH: B1 VH with A58S, T97A, R98K
VL: B1 VL
B24: FX-Y17-Y20 (antibody, V domains shown)
VH: B1 VH with A58S, R98K
VL: B1 VL
B25: FX-Y17-Y46 (antibody, V domains shown)
VH: B1 VH with V53Y, A58T, R98K, S99G
VL: B1 VL with Y30W, A32N, H92Q
B26: FX-Y17-Y22 (antibody, V domains shown)
VH: B1 VH with V53Y, A58T
VL: B1 VL with Y30W, A32N
B27: FX-Y17-Y19 (antibody, V domains shown)
VH: B1 VH with G56K, A58T
VL: B1 VL
B28: FX-Y17-Y23 (antibody, V domains shown)
VH: B1 VH with A58S
VL: B1 VL with Y30W, A32N
B29: FX-Y17-Y18 (antibody, V domains shown)
VH: B1 VH with A58S, R98K, S99H
VL: B1 VL with Y30W, A32N
B30: FX-Y17-Y17 (antibody, V domains shown)
VH: B1 VH with V53Y, A58T, R98K, S99G
VL: B1 VL with Y30W, A32N
B31: FX-Y17-Y13 (antibody, V domains shown)
VH: B1 VH with G56R, A58T
VL: B1 VL with A32N
B32: FX-Y17-Y12 (antibody, V domains shown)
VH: B1 VH with A58T, R98K, S99W
VL: B1 VL with V29L, A32H, H92K
B33: FX-Y17-Y10 (antibody, V domains shown)
VH: B1 VH with R98K, S99A
VL: B1 VL

The target in the first assay is T1, huFXII-his. In words: cell-based or functional assay.
Regarding B1, the “IC50 of inhibition of cleavage of chemical substrate S2302 by FXIIa (OD405)” value (“IC50 of inhibition of cleavage … (OD405)” below) turned out to be 0.0141 mg/L. With B2, the “IC50 of inhibition of cleavage … (OD405)” value stood at 0.022 mg/L. B3: the “IC50 of inhibition of cleavage … (OD405)” value is 0.0267 mg/L. For the molecule B4, the “IC50 of inhibition of cleavage … (OD405)” value was found to be 0.0179 mg/L.

For B5, the “IC50 of inhibition of cleavage … (OD405)” value stood at 0.0225 mg/L. Still for that read-out and setting: for B6 the value was 0.019 mg/L; for B7, 0.0157 mg/L. On the same count and under the same terms, to B8 belongs 0.0139 mg/L. On to B9, for which the “IC50 of inhibition of cleavage … (OD405)” value was 0.0177 mg/L. Consider B10, for which the “IC50 of inhibition of cleavage … (OD405)” value was found to be 0.0155 mg/L. As for B11, the “IC50 of inhibition of cleavage … (OD405)” value was 0.0166 mg/L. Take B12: the “IC50 of inhibition of cleavage … (OD405)” value was 0.0422 mg/L.

Turning to B13, the “IC50 of inhibition of cleavage … (OD405)” value was 0.016 mg/L. The same measure, in the same setting: for B14 the value was 0.0155 mg/L; for B15, 0.0146 mg/L.

The next assay deals with huFXII-his (human) (UniProt P00748). The experiment in a line: ELISA, huFXII-his coated at 1 µg/ml, HRP anti-human secondary, OD450.
The EC50 is the midpoint of the concentration-response curve. A high value points to lower potency in that assay. On to B16, for which the EC50 is 0.228 mg/L. For B17, the EC50 worked out at 0.14 mg/L.

The molecule B18 had an EC50 of 0.0781 mg/L. As for B19, the EC50 worked out at 0.151 mg/L. In turn, B20 came in with an EC50 of 0.131 mg/L.

The molecule B21 displayed an EC50 of 0.0629 mg/L. Against the preceding molecule, the EC50 is about 2.1-fold lower. As to B22, the EC50 turned out to be 0.101 mg/L.

B23 displayed an EC50 of 0.125 mg/L.

Consider B24, for which the EC50 worked out at 0.127 mg/L.

Molecule B25 returned an EC50 of 0.257 mg/L.

B26 showed an EC50 of 0.187 mg/L. With B27, the EC50 is 0.149 mg/L. In turn, B28 yielded an EC50 of 0.0942 mg/L. As for B29, the EC50 stood at 0.172 mg/L. Consider B30, for which the EC50 came to 0.169 mg/L. In turn, B31 yielded an EC50 of 0.128 mg/L. Consider B32, for which the EC50 was determined as 0.364 mg/L. B33 gave an EC50 of 0.161 mg/L.

A further assay has the same target. In words: cell-based or functional assay.
With B16, the IC50 of inhibition of cleavage of chemical substrate S2302 by FXIIa (OD405) was 0.0244 mg/L. With B17, the IC50 of inhibition of cleavage of chemical substrate S2302 by FXIIa (OD405) came out at 0.0138 mg/L.

Take B18: the IC50 of inhibition of cleavage of chemical substrate S2302 by FXIIa (OD405) worked out at 0.0155 mg/L. The same measure, in the same setting: to B19 belongs 0.0237 mg/L; to B20, 0.0202 mg/L; to B21, 0.0143 mg/L. Same read-out and setting: for B22 the value was 0.0132 mg/L. In turn, B23 returned an IC50 of inhibition of cleavage of chemical substrate S2302 by FXIIa (OD405) of 0.021 mg/L. On the same count and under the same terms, to B24 belongs 0.0187 mg/L. With B25, the IC50 of inhibition of cleavage of chemical substrate S2302 by FXIIa (OD405) amounted to 0.0321 mg/L. On to B26, for which the IC50 of inhibition of cleavage of chemical substrate S2302 by FXIIa (OD405) came to 0.0202 mg/L. B27: the IC50 of inhibition of cleavage of chemical substrate S2302 by FXIIa (OD405) was 0.0214 mg/L. On the same count and under the same terms, to B28 belongs 0.0129 mg/L; to B29, 0.0242 mg/L; to B30, 0.0199 mg/L. As for B31, the IC50 of inhibition of cleavage of chemical substrate S2302 by FXIIa (OD405) came out at 0.0259 mg/L. The molecule B32 registered an IC50 of inhibition of cleavage of chemical substrate S2302 by FXIIa (OD405) of 0.0296 mg/L. Regarding B33, the IC50 of inhibition of cleavage of chemical substrate S2302 by FXIIa (OD405) is 0.028 mg/L.
